Measurements as given in patent US20220332837A1.

Target: OX40-6His Protein-196AAs-21.82 kDa (recombinant canine OX40) (canine)
Test: phage ELISA, OX-40 coated (control)

OX40-6His Protein-196AAs-21.82 kDa (recombinant canine OX40) (canine), sequence (chain, as listed by the source limits assumed): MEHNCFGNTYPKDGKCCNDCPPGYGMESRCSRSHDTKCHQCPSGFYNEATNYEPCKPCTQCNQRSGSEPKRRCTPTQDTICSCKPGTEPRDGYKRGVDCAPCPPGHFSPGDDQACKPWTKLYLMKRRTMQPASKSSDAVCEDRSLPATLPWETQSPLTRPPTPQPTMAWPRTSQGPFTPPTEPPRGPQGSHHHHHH

ELISA signal, Coating: OX-40: 0.35
Substance: M13KO7
